The values below come from a protein production outcome set (Wang et al. 2014).

The series is described as follows: label from the status in PepcDB records.
Regarding “MRQFKTESKKLLDLMINSIYTNKEIFLRELISNASDAVDKLNFKSLQDPSVKIDQGDLAIRVSFDKDARTITISDNGIGMTAEELERNLGTIAHSGSEEFKTENAEQQGSDVDIIGQFGVGFYSAFMVASHVKVVSRAYGEDVAHVWESDGLEGYTIEDGERAEHGTDVILTLRENEKLDADGEAETYDRFLTEWGLKSLIQQYSNYVRYPIQMMVSKSRQKPKPEDAGDDYKPEYEDYQELETVNSMTPIWKKRSSDVEQKDYDEFYKSTFHDFDDPARTISFHAEGTLEYDALLFVPGRAPFDLYSKDYEKGLSLYSSNVLIMEKCDDLLPDYYNFVRGVVDSADVSLNISRETLQQNRQLKAIAKRVEKKITADLEDMRDNDREAYEKFFENFGRGLKYGIYSSYGMKADELADLLLFWSAKEQKMITLAEYAKGMPEDQKAIYYAAGDSRERLAKMPVVKGVLDRGYDVLLLTQDVDEFTFQAMREYVAADMPKIYEDDAAREAAEKAVADGAEPEVEDRHLELKNVATGDLDLATEDEKKEAEDATKENEDLFSAMKEALGDKVEKVAVSARLTDAPACITTEGPLSLEMEKVLQKGPEGAPDGMPKSQRVLELNAKHPVFDKLVAAQKAGDADKIKQYSGLLYDQALLVEGILPEDPVAFAAAVCNLM”, the protein production result is reported as “failed”.

For the sequence “MRQGEPGSPFSYLPVYQGPAVMSLRIFYHPLYSALTLPARHRFPLAKYQALFERLGSLGYPLAEAAPATPEQIKRVHDAAYVEAALAGTLDADAIRQLGFPWSPLLMERTLRSVGATLAASRHALEQGCGLQISGGYHHAHRDVGSGFCLFNDLVIAAQVCLDEGRCEQVLIVDLDVHQGDGSAALCQGRRDIITLSLHGEHNFPRYKPASHMDFPLPSGMADDAYLTTLAEALNLALRLYAPDLILYQAGVDVHKDDELGYLALSDEGIRQRDAMVFDCALRHGLPIAAVPGGGYRRDWQQLIPLHMSLFEEAKKRYG”, the protein production entry is listed as “failed”. “MRQHLSLFPFILFLLLAFSYVGCRTVRQTPKQSERYVVVLSLDGFRPDYTDRARTPALDRMAQEGLSGSLQPCFPSLTFPNHYSMATGLYPDHHGIVANEFVDSLLGIFRISDRKAVETPGFWGGEPVWNTAARQGIRTGVYFWVGSETAVNGNRPWRWKKFSSTVPFRDRADSVIAWLGLPEKERPRLLMWYIEEPDMIGHSQTPESPLTLAMVERLDSVVGYFRKRLDSLPIAAQTDFIIVSDHGMATYENEKCVNLSHYLPADSFLYMATGAFTHLYPKPSYTERAYEILRAIPHISVYRKGEVPKRLRCGTNPRLGELVVIPDIGSTVFFAINEDVRPGAAHGYDNQAPEMRALLRAVGPDFRPGSRVENLPNITIYPLICRLLGIEPAPNDADETLLNGLIRDKRP”: the protein production entry is listed as “failed”. Consider “MRQHWRMRHLALACFLLAPGAALASDCPTAPDHSERIAHLIEDIRAAPNEMQARTISNRMWEIWADAPDEAAQAILDNGMSRRRAWDLLGALSEFDRLVAYCPDYAEGYNQRAFANFLRQDFAAALIDLDRALALSPNHVAAMSGRALTLMGLGRIDEARSVLNQALELNPWLPERGLVAPGGPLEPKGKDI”, for which the protein production entry is listed as “failed”. Turning to “MRQKETTATTRFSLLPGSITRFFLLLIIVLLVTMGVMVQSAVNAWLKDKSYQIVDITHAIQKRVDTWRYVTWQIYDNIAATTSPSSGEGLQETRLKQDVYYLEKPRRKTEALIFGSHDNSTLEMTQRMSTYLDTLWGAENVPWSMYYLNGQDNSLVLISTLPLKDLTSGFKESTVSDIVDSRRAEMLQQANALDERESFSNMRRLAWQNGHYFTLRTTFNQPGHLATVVAFDLPINDLIPPGMPLDSFRLEPDATATGNNENEKEGTDSVSIHFNSTKIEISSALNSTDMRLVWQVPYGTLLLDTLQNILLPLLLNIGLLALALFGYTTFRHFSSRSTESVPSTAVNNELRILRAINEEIVSLLPLGLLVHDQESNRTVISNKIADHLLPHLNLQNITTMAEQHQGIIQATINNELYEIRMFRSQVAPRTQIFIIRDQDREVLVNKKLKQAQRLYEKNQQGRMTFMKNIGDALKEPAQSLAESAAKLNAPEGKQLANQADVLVRLVDEIQLANMLADDSWKSETELFSVQDLIDEVVPSVLPAIKRKGLQLLINNHLKAHDMRRGDRDALRRILLLLMQYAVTSTQLGKITLEVDQDESSEDRLTFRILDTGEGVSIHEMDNLHFPFINQTQNDRYGKADPLAFWLSDQLARKLGGHLNIKTRDGLGTRYSVHIKMLAADPEVEEEEERLLDDVCVMVDVTSAEIRNIVTRQLENWGATCITPDERLISQDYDIFLTDNPSNLTASGLLLSDDESGVREIGPGQLCVNFNMSNAMQEAVLQLIEVQLAQEEVTESPLGGDENAQLHASGYYALFVDTVPDDVKRLYTEAATSDFAALAQTAHRLKGVFAMLNLVPGKQLCETLEHLIREKDVPGIEKYISDIDSYVKSLL”, the protein production entry is “failed”.

Consider “MRQTKLTKAARGRECQVRIPGVCNGNPETTVLAHYRLAGTCGVGKKPHDMQGAWCCSACHDACDGRSRAVGRETARQYHAEGVMRTQALLLNEGVLVE”, for which the protein production result is on record as “not failed”. With “MRQVFSTDQEYKADKSPENLFPLTEVTRKMEYEERFDQAVRVTGVGLFVNLGLTIFKLLAGILGNSTAMVADAVHSLSDFLTDVVVIFGFKIAKKPVDESHNYGHGKIETLSASLVGLMLLLVAGQILYYGVQKTLMFIEAGTLEQPAIIALYAALASVISKEIMYQYTILKARKINSMALTANAWHHRSDAFSSFCTMIGIGAAVFLGGKWVVLDPLMAVFLSFIILKVSLKIFHSSINELVEASLDEKTESEIRQIIQKTEGVKALSNLKTRRIGNNIAVDIRIKVDNALDIGEANRISIHVEHNLKKAFGPYTYVLVKAEPYEREPWGNPEDEKAREHPVNPEKNKVCLRNHSN”, the protein production entry was “failed”. On to “MRRCPLCHSTQTHLLLQDKKRCFYICQTCWLTFADANSHLPPAAEKQRYGRSRIASKQRHLSQFILPLLTQIQQQQNGSLTGLNFGRVLDQTSLETIESAGHTFKQYDPFFAPDHETLKQEYDFICCYRVFEHFQYPIKEWSLLTRLLKPGGWLAISTPLLIDLEGFAKWHYKNNLTHVSFYQRQTFEYLASNSDFELLFAAKDLVLMQKTSLEHHHHHH”, for which the protein production result was “not failed”.

Consider “MRRFLVLLWLLSLALAAPRLVVEPEDGVKPLLDLIASAREEILVKMYLWTPSRMDVVEALGEAARRGVRVRVLLEREPSGGRVDLEVFQALKARGVEVRLTTPFRFVFVHEKSLVVDRKRAWVGTMNLTGSSFAANREYALILDDPAQVAEIAKVFEADWEGERLDLSQALLVWAPSRVLGGVKEGNARETLLALIRGAQRELFLEHQAMADPEVEAALKEALGRGVRVRLLGSPKEPGDTYFLAGALRLKEAGALVRFLPDPYVHAKVLVRDGEEALLGSLNLSANSIQANRELAVRFTAREAPEAFRRLLFVMEGDWEKALPENPFALPPVEGVIPWQEAPRYFGRVATVEGVIQAVEDRGTVAFLKFGPGESDLRLVVFPRSYGLFAQPFPQSYLGKKVRARGRIVLYAGYYEIVLEGPENLEVLDGGP”, for which the protein production result is recorded as “failed”.

As for “MRRFVIGQAKNLIDQSRRRQLHHHKNLSFVSLIPPFSAPSDSSSRHLSSSSSSDMSASDSSSSLPVTLDTINPKVIKCEYAVRGEIVNIAQKLQEDLKTNKDAYPFDEIIYCNIGNPQSLGQQPITFFREVLALCSYTALLDESATHGLFSSDSIERAWKILDQIPGRATGAYSHSQGIKGLRDAIADGIEARDGFPADPNDIFMTDGASPGVHMMMQLLITSEKDGILCPIPQYPLYSASIALHGGTLVPYYLDEASGWGLEISELKKQLEDARSKGITVRALAVINPGNPTGQVLSEENQRDVVKFCKQEGLVLLADEVYQENVYVPDKKFHSFKKVARSMGYGEKDLALVSFQSVSKGYYGECGKRGGYMEVTGFTSDVREQIYKMASVNLCSNISGQILASLIMSPPKPGDDSYESYIAEKDGILSSLARRAKTLEEALNKLEGVTCNRAEGAMYLFPCLHLPQKAIAAAEAEKTAPDNFYCKRLLKATGIVVVPGSGFRQVPGTWHFRCTILPQEDKIPAIVDRLTAFHQSFMDEFRD”, the protein production result is listed as “failed”.

For “MRRKLRYLNYRILIPYLILVVVGIILVYSASSDILLVNGFKPDVYGIRQAIYAAVAFFGFGIPFFALRLKVIKNPKFVAGFLIICILMLLWLVFLRFAHGSAAAVNGAVGWINLGFINLQPLEVTKLALVIYLAYVLDRRDGKLVRGKIKDNLSHPAMLAGFLMCLVIVEPDFGGTAILFMITLVMFSVSGVPVRLALTWLLGIILLVGAVFILVVLWNPKFLQDSYQFQRLMSFLHPFQLERKGGAQLVNSYYAIHNGGLFGVGLGNSMQKRGYLPEPYTDFILSITAEEIGVIFTIVLVGLLFYLMWQIMEVGINAVSQFDALICFGVTTIIFTEALFNIGAVLGLLPITGVTLPFISYGGSSMIVLTAAIGLVLNVSANEKMLKEKDETIA”, the protein production entry was “failed”. Then “MRRLALLFPVLALLVGVWAFPLLGPLFRHGAVPNPFALKEPFTLLVYGSSPEYVEYHKRAPERFRGLADTILLVRLDPGANRVVVLSVPRDVWVLLPGHGWHKVNAASPLGGPELMKEAVARITGVRPDRYVVVSLEALRRGVDALGGVRVCVEKPMRYQDQAAGLVIDLEPGCQVLSGAQAEGYLRFRKDALGDIGRIQRQQAFFHALKDQLFSLPGLLRLPRAVAAVEPYVATDLTRGEKGALLGFLLRRPAFVSLLLPGRFAGGWAVDEAAWARLRAVYFEDREAWGEALAGKRAVVLFGPGQGALAQEAAERLKALGLSVSLRELALAPERTEVLENGPGRLAQALGEALGVPYRVSGEAALGADLTLRLGREGLPR”, with “failed”. With “MRRLLTAVLISTLGAASLVRADGPAPFSKVFEDISADQPGCAAGVMRGGKVIWSAGYGAADLTTGAAIQADTLFNLASVSKQFTGFAILQLQAQGRLSLEDPVRRFLPELPAYAQGIRIRHLLHHTSGLQDYMLLAELAGIPLSQRFTQQQALDLLVRQNSLMFPPGSEFSYSNSGYVLLSSIVERASGLSLKHYSRANIFLPLGMDHSSIVDQYPVQLPNLARGYEPGGQGKAQVAVDARWEQTGDGQVHSNVADLMRWLRNLSTGRVGGKALVENMRQTEPLNDGDPGYYGMGLANRSYRGLQELSHSGGWAGFNTDVAWYPKLDVATVVLCNSDDGRASERGRQLLDTLLGSPAPSGEADIPPPPPSIRALPKASLKTLVAGTYLDDGGHQLQLRRSGKGWSLETFPDVLPLTRQSDEVLVADNDGTPIYLAATSGGRIALNNPASTYALAPPWKPDDIRPYVGLYTLETSPGQLKVHARQGKLYVRIGLYTYPMQPLTAERFSAGELGVLSFAEQGAVLTSSVARNLRFGKVFAP”, the protein production entry is “failed”. As to “MRRQAEAYKAQLAAMVESSDDAIIVKDLNAIITSWNAGAERIFGYQASEITGSSILALIPPERHEEEKGIMSLVKSGNRVDHFETMWWGKGKKPIDVSVTTSAVKDSDGNIVGISQIARDLEHHHHHH”, the protein production entry was “failed”.

As to “MRRQPKTRQESARMSIEAPETVVVSTWKVACDGGEGALGHPRVWLSIPHETGFVECGYCDRRYIHESFAAAKLEHHHHHH”, the protein production result is given as “not failed”. Consider “MRRRVAAALVAAVLAAPALAQQPEPFEPEGYRTDNYRAPVPATLAGARVLTTAEAEAIWRDKSGAFIDVMPRAPKPKNLPEGTVWRDAPRRNIPGSLWLPDTGYGNLPPAMDDYLQRGLAQASRGDKAALLVIYCLADCWMSWNAARRALAYGYSNIAWYPDGSDGWERAALPTDEGQPEPRPDQ”, for which the protein production entry is “failed”.
